Reference: patent US20120277286A1, “COMPOSITIONS AND METHODS FOR THE TREATMENT OR PREVENTION OF MITOCHONDRIAL DISEASES” (The Government of the USA, as represented by the Secretary, …, priority 2009, published 2012)
Positions count from the first letter of the chain named. In names and notes the source's numbering stands. Where a SMILES comes first, the peptide text is derived from it. The star is where a group is joined. Cbz = O=C(OCc1ccccc1)*

Assays:
Assay type in all cases: cell-based
[1] = test system: PINK1; assay: PINK1 accumulation by fractionation and immunoblotting
Excerpt: (§1) For PINK1 experiments, cells were fractionated using the Mitochondria Isolation Kit (Pierce), according to manufacturer's specifications with slight modifications. To isolate integral membrane proteins, membrane fractions obtained as above were carbonate extracted with 0.1M Na2CO3 fresh cold buffer and membranes were pelleted, as described in the supplemental methods. For Parkin experiments, cells were fractionated as described previously, with minor modifications described in the supplemental methods (Narendra (2008) J Cell Biol 183: 795-803). The following primary antibodies were used: anti-Parkin (PRK8) monoclonal (Santa Cruz), anti-Tom20 polyclonal (Santa Cruz), anti-cytochrome c monoclonal (BD Biosciences), anti-PINK1 polyclonal (Novus Biologicals), anti-VDAC monoclonal (Calbiochem), anti-GAPDH polyclonal (Sigma-Aldrich), anti-Tubulin monoclonal (Sigma-Aldrich), anti-V5 monoclonal (Invitrogen), anti-GFP polyclonal (Invitrogen).
as §1, with “with slight modifications described in the supplemental methods. To isolate” for “with slight modifications. To isolate”, “minor modifications detailed in the” for “minor modifications described in the”, “supplemental methods (Narendra (2008) J Cell Biol 183: 795-803). The protease protection assay was performed as described previously (Chen (2005) J Biol Chem 280: 26185-26192). Cells were fixed and immunostained as described previously (Narendra (2008)” for “supplemental methods (Narendra (2008)”, “anti-GFP polyclonal (Invitrogen), anti-TIM23 monoclonal (BD Biosciences), and anti-Hsp60 monoclonal (Stressgen).” for “anti-GFP polyclonal (Invitrogen).”

[2] = test system: HeLa cells; assay: Mitochondrial translocation of Parkin by imaging (Examples 4 and 5); details: HeLa stably expressing YFP-Parkin, MG132 for 8 hrs
Method: Cells were cultured in borosilicated chamber slides for imaging, 6-well plates for whole cell lysates, and 100 or 150 mm culture dish for subcellular fractionation. One day after seeding, cells were transfected with indicated constructs using Fugene HD (Roche) or Lipofectamine 2000 (Invitrogen) according to the manufacturer's guidelines.
For immunocytochemistry, cultured cells in borosilicated chamber slides were fixed with 4% paraformaldehyde in PBS (USB) and permeabilized with the indicated detergent. After 30 min blocking with 10% BSA in PBS, cells were stained with the following primary antibodies: antiTom20 polyclonal antibody (Santa Cruz Biotechnology, Inc.) and anti-cytochrome C monoclonal antibody (BD), or anti-Tom20 monoclonal antibody (BD) and anti-GFP polyclonal antibody (Invitrogen) and then with the following secondary antibodies: goat anti-mouse/rabbit IgG antibody conjugated with Alexa Fluor 594/647, respectively. In case of live cell imaging, cells were pulsed with 600 nM TMRE for 5 min to evaluate mitochondrial membrane potential or 10 nM Mitotracker Red for 30 min to see the mitochondrial morphology. Cells were imaged using an inverted microscope (LSM510 Meta; Carl Zeiss) with 63×/1.4 oil DIC Plan Apo objective. Image contrast and brightness were adjusted in LSM image browser (Carl Zeiss).

[3] = test system: HeLa cells; assay: Parkin colocalization with mitochondria scored by confocal microscopy; details: for YFP-Parkin (wild type or indicated mutant) colocalization with mitochondria, % of cells: HeLa cells, 1 hour
Method: (§2) Cultured cells seeded in borosilicate chamber slides (Thermo Fisher Scientific) were transfected or cotransfected with YFP-Parkin, ECFP-Parkin, mCherry-Parkin, DsRed-Mito (Clontech Laboratories, Inc.), pcDNA3.1 (Invitrogen), vMIA, and/or Drp1K38A constructs using Fugene 6 (Roche). Parkin-myc was a gift from M. Cookson (National Institutes of Health, Bethesda, Md.). Cells were fixed 12-24 hours after transfection with 4% paraformaldehyde in PBS. Cells were stained with following primary antibodies: mouse monoclonal cytochrome c (BD), rabbit polyclonal Tom20 (Santa Cruz Biotechnology, Inc.), mouse monoclonal Parkin PRK8 (Santa Cruz Biotechnology, Inc.), rabbit polyclonal PMP70 (Invitrogen), and/or mouse monoclonal TRAP1 (Abcam); and with the following secondary antibodies: mouse and/or rabbit Alexa 488, 594, and 633 (Invitrogen). For assessment of mitochondrial membrane potential, cells were pulsed with 50 nM Mito-Tracker red (Invitrogen) for 15 min, washed, and incubated for an additional 10 minutes before fixation or imaging. For assessment of cell metabolic potential, cell nuclei were stained with Hoechst 33342 (Invitrogen).
Fixed cells and live cells in the FLIP assay were imaged using an inverted microscope (LSM510 Meta; Carl Zeiss, Inc.) with a 63×/1.4 oil DIC Plan Apo objective at 25° C. and 37° C., respectively. For the FLIP assay, a bleach region of interest (ROI) occupying approximately one eighth of the cell was positioned over a relatively mitochondria-free portion of the cytosol. Cells were alternately bleached (488 nm using a 30-mW argon laser at 75% power and 100% transmission for 150 iterations) and imaged (488 nm at 75% power and 2% transmission) for 10 minutes (—60 cycles over the length of the experiment). Two channel prebleach and postbleach images were obtained with 488 and 594 lasers to assess the position of mitochondria before and after bleaching. Circular ROIs with diameters of ˜1 and 5 μm, respectively, were placed over the mitochondria and cytosol of the target cell, and an ROI of 10 μm was placed over the control cell. Imaging of YFP-Parkin translocation in live HeLa cells was performed on a live cell imager system (UltraView LCI; PerkinElmer) at 35° C. with a 100×/1.45 α-Plan-Fluor objective.
Image contrast and brightness were adjusted in Photoshop (Adobe). Colocalization was assessed with line scans using MetaMorph (MDS Analytical Technologies). For analysis of mitochondrial membrane potential in cells, mitochondrial voxels in each image (the cytochrome c channel threshold was ≧400 au) were segregated into Parkin-positive (the YFP-Parkin channel threshold was ≧1,100 au) or Parkin-negative subsets, and MitoTracker intensity for each voxel was measured using Volocity software (Improvision). For each cell, the mean MitoTracker intensity per voxel was calculated for the Parkin-positive and Parkin-negative subsets. The difference in mean Mito-Tracker intensity between the Parkin-positive and Parkin-negative subsets was calculated using a paired t test. Western blotting HeLa cells stably expressing YFP-Parkin, HEK293 cells, and rat cortical neurons 2 days in vitro were harvested and fractionated as described previously (Karbowski et al., J. Cell Biol. 178: 71-84, 2007). Samples were run on SDS-PAGE and immunoblotted with the following antibodies: polyclonal rabbit anti-GFP (Invitrogen), mouse monoclonal anti-Parkin (PRK8), and mouse monoclonal anti-Porin 31HL (EMD).
(§3) Confocal microscopy of fixed samples, scoring of Parkin recruitment and Parkininduced mitophagy, and live cell imaging were performed as described previously (Narendra (2008) J Cell Biol 183: 795-803). Experiments in Mfn1/2 null cells were performed as described previously with minor modifications.
Confocal microscopy of fixed samples, scoring of Parkin recruitment and Parkin-induced mitophagy, and live cell imageing were performed as described previously (Narendra (2008) J Cell Biol 183: 795-803). […]

[4] = test system: HeLa cells; assay: Parkin in mitochondria-rich membrane fraction, immunoblot; details: for translocation of YFP-Parkin variant to mitochondria-rich membrane fraction: HeLa, CCCP 1 hr, Western blotting
Excerpt: as §1
as §1, with “with slight modifications described in the supplemental methods. To isolate” for “with slight modifications. To isolate”, “minor modifications detailed in the” for “minor modifications described in the”, “supplemental methods (Narendra (2008) J Cell Biol 183: 795-803). The protease protection assay was performed as described previously (Chen (2005) J Biol Chem 280: 26185-26192). Cells were fixed and immunostained as described previously (Narendra (2008)” for “supplemental methods (Narendra (2008)”, “anti-GFP polyclonal (Invitrogen), anti-TIM23 monoclonal (BD Biosciences), and anti-Hsp60 monoclonal (Stressgen).” for “anti-GFP polyclonal (Invitrogen).”

[5] = test system: HeLa cells; assay: Parkin-induced mitophagy, loss of mitochondria by immunocytochemistry; details: HeLa expressing YFP-Parkin variant, CCCP 24 hours
Method: as §2, §3
as §3, with “Parkin-induced” for “Parkininduced”, “imageing” for “imaging”, “modifications described in the supplemental methods (Narendra (2008) J Cell Biol 183: 795-803).” for “modifications.”

CC(C)C[C@@H](C=O)NC(=O)[C@H](CC(C)C)NC(=O)[C@H](CC(C)C)NC(=O)OCc1ccccc1 [MG132, reference compound] (Cbz-Leu-Leu-Leu-aldehyde)
appearance of short form of PINK1 ([1]; HeLa treated with vehicle, 50 μM MG132 for final hour): ˜52 kDa band appears
mitochondrial translocation of Parkin [2]: no mitochondrial translocation of Parkin was detected

C[C@@H]1C[C@@H]([C@H](O)CC2CC(=O)NC(=O)C2)C(=O)[C@@H](C)C1 [cycloheximide, reference compound]
effect on abundance of accumulated full length PINK1 ([1]; HeLa, after 3 hours CCCP, continuous CCCP): little effect
effect on depolarization-induced accumulation of endogenous PINK1 ([1]; HeLa, cycloheximide 90 minutes, CCCP 60 minutes, whole cell lysates and membrane fraction): blocked
effect on CCCP-induced Parkin recruitment to mitochondria ([3]; HeLa cells expressing YFP-Parkin, added together with CCCP): blocked
YFP-Parkin colocalization with mitochondria, % of cells ([3]; HeLa, 10 μM CCCP 1 hr+100 μM CHX (30 minutes pretreatment)): 11.3±4.2%
effect on YFP-Parkin accumulation in mitochondrial enriched heavy membrane fraction ([4]; HeLa YFP-Parkin, CCCP plus cycloheximide): blocked

B1: R275W: YFP-Parkin mutation in RING1 (protein, UniProt O60260 1-465, looked up, variant R275W)
E3 ubiquitin-protein ligase …: MIVFVRFNSSHGFPVEVDSDTSIFQLKEVVAKRQGVPADQLRVIFAGKELRNDWTVQNCDLDQQSIVHIVQRPWRKGQEMNATGGDDPRNAAGGCEREPQSLTRVDLSSSVLPGDSVGLAVILHTDSRKDSPPAGSPAGRSIYNSFYVYCKGPCQRVQPGKLRVQCSTCRQATLTLTQGPSCWDDVLIPNRMSGECQSPHCPGTSAEFFFKCGAHPTSDKETSVALHLIATNSRNITCITCTDVRSPVLVFQCNSRHVICLDCFHLYCVTRLNDWQFVHDPQLGYSLPCVAGCPNSLIKELHHFRILGEEQYNRYQQYGAEECVLQMGGVLCPRPGCGAGLLPEPDQRKVTCEGGNGLGCGFAFCRECKEAYHEGECSAVFEASGTTTQAYRVDERAAEQARWEAASKETIKKTTKPCPRCHVPVEKNGGCMHMKCPQPQCRLEWCWNCGCEWNRVCMGDHWFDV
modifications: YFP fusion
notes: YFP-Parkin mutation in RING1
YFP-Parkin (wild type or indicated mutant) colocalization with mitochondria, % of cells ([3]; 10 μM CCCP): 81.7±2.1%
translocation of YFP-Parkin variant to mitochondria-rich membrane fraction [4]: increases localization in the membrane fraction
cells with no mitochondria [5]: 4.0±4%

B2: C332S: YFP-Parkin engineered mutation in conserved RING cysteine (protein, UniProt O60260 1-465, looked up, variant C332S)
E3 ubiquitin-protein ligase …: B1 E3 ubiquitin-protein ligase … with W275R, C332S
modifications: YFP fusion
notes: YFP-Parkin engineered mutation in conserved RING cysteine
recruitment of mutant YFP-Parkin to mitochondria ([3]; HeLa, 10 μM CCCP, 24 hours): Mitochondrial recruitment was seen
recruitment of mutant YFP-Parkin to depolarized mitochondria ([3]; HeLa, CCCP 1 hr): completely disrupt
translocation of YFP-Parkin variant to mitochondria-rich membrane fraction [4]: No membrane translocation was detectable

B3: R42P: YFP-Parkin with pathogenic UBL domain mutation (protein, UniProt O60260 1-465, looked up, variant R42P)
E3 ubiquitin-protein ligase …: B1 E3 ubiquitin-protein ligase … with R42P, W275R
modifications: YFP fusion
notes: YFP-Parkin with pathogenic UBL domain mutation
YFP-Parkin (wild type or indicated mutant) colocalization with mitochondria, % of cells ([3]; 10 μM CCCP): 34±5.3%
translocation of YFP-Parkin variant to mitochondria-rich membrane fraction [4]: No membrane translocation was detectable
cells with no mitochondria [5]: 22.0±2.0%
